Experimental data from PMC11432006.

B1: anti-lysozyme VNAR (lyso-VNAR) C30A; C112.1S (protein)
chain: ARVDQTPQTITKETGESLTINCVLRDSNAALSSTYWYRKKSGSTNEESISKGGRYVETVNSGSKSFSLRINDLTVEDSGTYRCKPESRYGSYDAESAALNDQYGGGTVVTVN
B2: anti-lysozyme VNAR (lyso-VNAR) C30L; C112.1A (protein)
chain: ARVDQTPQTITKETGESLTINCVLRDSNLALSSTYWYRKKSGSTNEESISKGGRYVETVNSGSKSFSLRINDLTVEDSGTYRCKPESRYGSYDAEAAALNDQYGGGTVVTVN
B3: anti-lysozyme VNAR (lyso-VNAR) C30G; C112.1L (protein)
chain: ARVDQTPQTITKETGESLTINCVLRDSNGALSSTYWYRKKSGSTNEESISKGGRYVETVNSGSKSFSLRINDLTVEDSGTYRCKPESRYGSYDAELAALNDQYGGGTVVTVN
B4: anti-lysozyme VNAR (lyso-VNAR) C30P; C112.1T (protein)
chain: ARVDQTPQTITKETGESLTINCVLRDSNPALSSTYWYRKKSGSTNEESISKGGRYVETVNSGSKSFSLRINDLTVEDSGTYRCKPESRYGSYDAETAALNDQYGGGTVVTVN
B5: anti-lysozyme VNAR (lyso-VNAR) C30W; C112.1V (protein)
chain: ARVDQTPQTITKETGESLTINCVLRDSNWALSSTYWYRKKSGSTNEESISKGGRYVETVNSGSKSFSLRINDLTVEDSGTYRCKPESRYGSYDAEVAALNDQYGGGTVVTVN
B6: anti-lysozyme VNAR (lyso-VNAR) C30G; C112.1A (protein)
chain: ARVDQTPQTITKETGESLTINCVLRDSNGALSSTYWYRKKSGSTNEESISKGGRYVETVNSGSKSFSLRINDLTVEDSGTYRCKPESRYGSYDAEAAALNDQYGGGTVVTVN
B7: anti-lysozyme VNAR (lyso-VNAR) C30L; C112.1L (protein)
chain: ARVDQTPQTITKETGESLTINCVLRDSNLALSSTYWYRKKSGSTNEESISKGGRYVETVNSGSKSFSLRINDLTVEDSGTYRCKPESRYGSYDAELAALNDQYGGGTVVTVN

molecular target: lysozyme from egg, P00698; experiment: SPR; conditions: chain shown with the change; lysozyme immobilized, VNAR flowed over; 1:1 fitting model
Sequence (P00698 19-147): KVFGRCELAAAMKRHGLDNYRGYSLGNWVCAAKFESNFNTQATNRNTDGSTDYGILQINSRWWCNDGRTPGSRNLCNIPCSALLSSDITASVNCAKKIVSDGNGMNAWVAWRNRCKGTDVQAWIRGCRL

Going from B1 to B2, the ratio to parent falls from 31.5 to 19.1.

Going from B3 to B4, the ratio to parent rises from 12.7 to 211.

Going from B5 to B6, the ratio to parent falls from 54.3 to 24.1.

B7 gave a ratio to parent of 100.
